Patent US10752676B2 (UCB Biopharma SPRL, priority 2011, dated 2020)

Experiments:
[1] = system: Clostridium difficile strain ATCC43596; test: Anti-C. difficile toxin Mab hamster infection study; type: in vivo, Golden Syrian hamsters; details: 5 mg/kg twice a day for 5 days (p.o.) on days 1-5
Protocol: The hamster infection study was performed by Ricerca Biosciences LLC, Cleveland, Ohio, USA. The study protocol was approved by the Ricerca IACUC committee. Active and control components (composition and dose) were blinded to Ricerca staff until after completion of the planned 28 day study period.
Golden Syrian male hamsters (weight 82-103 g, 54 days old) were individually housed in HEPA filtered disposable cages and fed Teklad Global Diet 2016 and water ad libitum. After acclimatisation, hamsters were pre-dosed (i.p.) with Mab mixtures or PBS (vehicle control) once a day for each of 4 days: days −3, −2, −1 and 0. Two doses of Mab were investigated: high dose=50 mg/kg each of anti-TcdA and anti-TcdB components and low dose 5 mg/kg each of anti-TcdA and anti-TcdB components.
Hamsters were sensitised (day −1) with 50 mg/kg of Clindamycin phosphate in PBS (s.c.) before being challenged 1 day later (day 0) with 3.4×106 c.f.u. of vegetative cells from strain ATCC43596. […]
Viability checks were performed on animals twice a day, animals found to be in extremis were euthanised and counted as dead. Body weights were determined on each day of dosing, then twice weekly and before euthanising survivors. […] Survival curves were analysed using the P value from the log rank test compared to the Bonferroni corrected threshold of P=0.005. […]

[2] = Estimation of isoelectric point (pI) by capillary IEF; type: physicochemical
Protocol: Samples were prepared by mixing the following: 30 ul Protein sample at 2 mg/ml, 0.35% Methylcellulose, 4% pH3-10 ampholytes (Pharmalyte), synthetic pI markers (4.65 and 9.77), 1 ul of each stock solution, and HPLC grade water to make up the final volume to 200 ul. The mixture was then analysed using iCE280 IEF analyzer (pre-focusing at 1500V for 1 min followed by focusing at 3000V for 6 mins). The calibrated electropherograms were then integrated using Empower software (from Waters)

TcdB1234 = TcdB1234 (Clostridioides difficile, UniProt P18177); details: Purified Mab 3 point titration
Protocol: (§1) Kinetic constants for the interactions of anti-C. difficile TcdA and TcdB antibodies were determined by surface plasmon resonance conducted on a BIAcore 3000 using CM5 sensor chips. All experiments were performed at 25° C. Affinipure F(ab′)2 fragment goat anti-human IgG, Fc fragment specific (Jackson ImmunoResearch) was immobilised on a CM5 Sensor Chip (GE) via amine coupling chemistry to a capture level of ≈7000 response units (RUs).
(§2) Double referenced background subtracted binding curves were analysed using the BIAevaluation software (version 3.2) following standard procedures. Kinetic parameters were determined from the fitting algorithm

[3] = Thermal stability (Tm) measured via Thermofluor assay; type: physicochemical; details: PBS pH 7.40
Protocol: This method uses Sypro orange fluorescent dye to monitor the unfolding process of protein domains. The dye binds to exposed hydrophobic regions that become exposed as a consequence of unfolding which results in a change to the emission spectrum.
The sample (5 ul at 1 mg/ml) is mixed with a 5 ul of a stock solution of Sypro orange (30×) and the volume made up to 50 ul with PBS, pH 7.40.
10 ul aliquots of this solution is applied to wells in a 384 well plate (n=4).
The plate is placed in a 7900HT fast real-time PCR system containing a heating device for accurate temperature control. The temperature is increased from 20° C. to 99° C. (Ramp rate of 1.1° C./min). A CCD device simultaneously monitors the fluorescence changes in the wells. An algorithm is used to process intensity data and take into account multiple transitions.

TcdA456 = TcdA456 (Clostridioides difficile, UniProt P16154); details: Purified Mab 5 point titration
Protocol: as §1, §2

Row | Molecule | survival [1] | measured pI [2] | ka (TcdB1234) | kd (TcdB1234) | Tm(CH2) [3] | Tm(Fab) in PBS [3] | ka (TcdA456) | kd (TcdA456)
1 | CN[C@H](CC(C)C)C(=O)N[C@H]1C(=O)N[C@@H](CC(N)=O)C(=O)N[C@H]2C(=O)N[C@H]3C(=O)N[C@H](C(=O)N[C@H](C(=O)O)c4cc(O)cc(O)c4-c4cc3ccc4O)[C@H](O)c3ccc(c(Cl)c3)Oc3cc2cc(c3O[C@@H]2O[C@H](CO)[C@@H](O)[C@H](O)[C@H]2O[C@H]2C[C@](C)(N)[C@H](O)[C@H](C)O2)Oc2ccc(cc2Cl)[C@H]1O [vancomycin] | all died on days +10 and +11 | – | – | – | – | – | – | –
2 | 1134.g5: anti-toxin B antibody; light chain variable SEQ ID NO: 147, heavy SEQ ID NO: 149 (antibody, V domains shown, Antibody variable region for anti-TcdB antibody 1134 (heavy chain); Antibody variable region for anti-TcdB antibody 1134) VH: EVQLQESGPGLVKPSETLSLTCTVSGFSLNSYTITWVRQPPGKGLEWIAAISGGGSTYFNSALKSRVTISRDTSKSQVSLKLSSVTAADTAVYYCTRPRWYPRSYFDYWGRGTLVTVS VL: DVQLTQSPSFLSASVGDRVTITCKASKSISNHLAWYQEKPGKANKLLIHSGSTLQPGTPSRFSGSGSGTEFTLTISSLQPEDFATYYCQQYDEYPYTFGQGTRLEIK | – | 9.2 | 509000 M⁻¹ s⁻¹ | 2.45e-05 s⁻¹ | 69.2 °C | 76.4 °C | – | –
3 | CA995: humanised anti-toxin A IgG1; light chain variable SEQ ID NO: 37, heavy SEQ ID NO: 39 (antibody, V domains shown, Antibody variable region for anti-TcdA antibody 995 (heavy chain); Antibody variable region for anti-TcdA antibody 995) VH: EVQLVESGGGLVQPGGSLRLSCTASGFSLSNYDMIWVRQAPGKGLEYIGFINTGGITYYASWAKGRFTISRDSSTVYLQMNSLRAEDTATYFCARVDDYIGAWGAGLWGQGTLVTVS VL: DVVMTQSPSTLSASVGDRVTITCQASQSINNYFSWYQQKPGKAPKLLIYGAANLASGVPSRFKGSGSGTEYTLTISSLQPDDFATYSCQNNYGVHIYGAAFGGGTKVEIK | – | 8.5 | – | – | – | 71 °C | 287000 M⁻¹ s⁻¹ | 3.42e-05 s⁻¹
